Assay results published in a protein production outcome set (Wang et al. 2014).

test: label from the status in PepcDB records
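Further: failed if final PepcDB status was selected cloned or expressed and not failed if soluble or beyond.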

Sequence | protein production
MEKLNFGIPEWAFEFHGHKCPYMPMGYRAGSYALKIAGLEKEKDHRTYLLSEMSPEDMNGCFNDGAQAATGCTYGKGLFSLLGYGKLALILYRPGRKAIRVHVRNSFMDELSTRASDFFRYRKQGYEPSEIPAGAIDPVLEWISSLEDEEIFEYREIDGFTFEPVKKNGAKVRCDVCGEYTYEADAKLLNGKPVCKPDYYGKK | not failed
MEKNVSQVTAQEETALKARGYNEDLLPSSPKQRTMGARNFFTLWMGSIHNIPNYAAVGGFIFLGLSPLQVMLAVVLSSFIVATFMNLNGVAGSKYGIPFAMHLQSTYGSLGAKLPGFLRGCVAAIAWFGLQTFTGSLALLIILGKFWPNFLEIGGSFQFFGLRLPELMAFTLFWLLNVAIGFGGSKILNRFTAILSPLIYVVIIGLTIWAIRAGGGLTPILSYQVSGAIRSVNPLVAYLIIFNSVVAVWSAPGASVADFTKNARSTRAQVVGQTTGLVVGYGIFAFSSVVILLGGSLYFGIQEWNILNIIDRLDNVAVVVLAMSVFLLTTISTNATGNIIPAGYQLAALFPKKMTYKKGVMIASVISFLIMPWKLMENADSIFIFLNAIGAVLGPVAGVMIANYYFVQKQQIDLNALYVDKHKKEEANPFYGLNKPAYVATILALVLSLSGQFIPQVKIIADISWFVGFATGFVLYLVLKKWTWDSKKVKETAYQEGK | failed
MEKPRSIEETPSSEPMEEEEDDDLELFGGYDSFRSYNSSVGSESSSYLEESSEAENEDREAGELPTSPLHLLSPGTPRSLDGSGSEPAVCEMCGIVGTREAFFSKTKRFCSVSCSRSYSSNSKKASILARLQGKPPTKKAKVLHKAAWSAKIGAFLHSQGTGQLADGTPTGQDALVLGFDWGKFLKDHSYKAAPVSCFKHVPLYDQWEDVMKGMKVEVLNSDAVLPSRVYWIASVIQTAGYRVLLRYEGFENDASHDFWCNLGTVDVHPIGWCAINSKILVPPRTIHAKFTDWKGYLMKRLVGSRTLPVDFHIKMVESMKYPFRQGMRLEVVDKSQVSRTRMAVVDTVIGGRLRLLYEDGDSDDDFWCHMWSPLIHPVGWSRRVGHGIKMSERRSDMAHHPTFRKIYCDAVPYLFKKVRAVYTEGGWFEEGMKLEAIDPLNLGNICVATVCKVLLDGYLMICVDGGPSTDGLDWFCYHASSHAIFPATFCQKNDIELTPPKGYEAQTFNWENYLEKTKSKAAPSRLFNMDCPNHGFKVGMKLEAVDLMEPRLICVATVKRVVHRLLSIHFDGWDSEYDQWVDCESPDIYPVGWCELTGYQLQPPVAAEPATPLKAKEATKKKKKQFGKKRKRIPPTKTRPLRQGSKKPLLEDDPQGARKISSEPVPGEIIAVRVKEEHLDVASPDKASSPELPVSVENIKQETDD | failed
MEKQEEEDVKRRQRQKAATSLGFLHWEELKNHGDLSKVALNIALTTLVDDASTGFCIMNLVNLIVLRESSQGYLLTYEGKLASLASATYVKAFISLWVLEDAERHAWSFRTFSLTFPLDDPILDTFLELTGVTEAGEFVYAPTTLQSPFHALYFDPQRNSFRRVIYEGLADDEFRRRNRLGYERHHILPNHIESLISL | failed
MEKTLETVPLERKKREKEQFRKLFIGGLSFETTEESLRNYYEQWGKLTDCVVMRDPASKRSRGFGFVTFSSMAEVDAAMAARPHSIDGRVVEPKRAVAREESG | not failed
MEKVKKIVLIGASGFVGSALLNEALNRGFEVTAVVRHPEKIKIENEHLKVKKADVSSLDEVCEVCKGADAVISAFNPGWNNPDIYDETIKVYLTIIDGVKKAGVNRFLMVGGAGSLFIAPGLRLMDSGEVPENILPGVKALGEFYLNFLMKEKEIDWVFFSPAADMRPGVRTGRYRLGKDDMIVDIVGNSHISVEDYAAAMIDELEHPKHHQERFTIGYLEHHHHHH | failed
MEKYLRSGTMFVVLAFILWGLTPLYYQYLSGGNLAQILIYRVFWSIPLLLAVRLLFRQRTRFHDAWKDKKSFFFCMIAGLLMIVSWSSFIYALTHHLVLDASLGYFINPLFVIALGCIFLKEKLSLFQAIAVFSGVCGLTFQIIMLRHFPALALTMGLSFALYGLARKFIHYDVMTSITIETLWALPVSLLIFLFSDSGPIISANTPFFLYVMTAPVTIIPLVLFAIALNHTSLIVTGLAQYIEPSLQFLLAIMIFGEHINYAELLCFCAVWFGLFLCISENLYSHYLRARLKPVFGRVQRFFR | failed
MELDAFNKGAIPLINHPDCSALGYQVIQELGRNQEEGRITYLAHHHQSKQQVVIKEFSFAHTYTDWCDFTAYESEAKILQKLNHPRIPRYLDSFATQTGFYLVQEYKHALPLSSKRSFQPEEIKQIAVSVLEILVYLQQRIDPIIHRDIKPENILVDEQLNAYLVDFGLARVQDTKIALTSLLTGTPGFIPPEEQLGYSLSLASDLYSVGATLICLLANIRSVDIGKLIDSKGYFDFQKLDSQIDLRFRSWLMGMVEPKWQYRYTNAADALAALQPIQVTGNATAMEILATVIKLKYQTTVLGLAIIGVLAVAGATLILSQQGGAAQQLQEARK | failed
MELEQKLNLLNDLIVREIVNPLPPPYKVGVDLGTADIVLVVTDQEGIPVAGALKWASVVKDGLVVDYIGAIQIVRELKAKVERLLGSELFQAATAIPPGTVGRNAEACGHVVAGAGLELVTLVDEPVAAARALGINDGIVVDIGGGTTGIAVIEKGKITATFDEPTGGTHLSLVLAGSYKIPFEEAETIKKDFSRHREIMPVVRPVIEKMALIVKEVIKNYDQTLPVYVVGGTAYLTGFSEEFSRFLGKEVQVPIHPLLVTPLGIALFG | not failed
MELGFPLLWLSLVLPVLASLTIVALPPRTAYWLVAITLAIPGIVSSYYAFQGVLSEGIIDPVSLNLSNIGIGVVALAVDGFSYPFVLGVSVVTALVAVYGYKYMEVRLREMEGEGERAPGHAAYLILYSIFSSTMLGIAYSLNFLLFIIFLELSLLSSFLLIAFYGYGDRRRIALLYFVWTHIAGALALLGGLYYVIKTGTFDVATVEGGRIVYFSSPADRSVYAAIAGVSLLLGMLVKMAVFGVHMWLPYAHAEAPTPISALLSPNLIGLGGYGIARFAAAFYPWLLEDLKPLLVGLAFVTIVYGGLVALSQLDFKRLLAYSSISQMGYMLLALSTLHPLGFAAASLIFLGHAVGKAVLFMTAGVFITEAHGLRNIARMGGLARLYPLTAAAALIGFLHLAGIPPAFGFWGELYLTLSVLNYPGYSDAVSLGLLAIILIVAFTVTAAYSFITMRRIFFGRPRADMDAREEVDGFKSTVVLLAVLGVALFLLAGPMVTDLAASSLAMVEAFLS | failed
MELGSVATFSLYPDLYARFRPSYPEELYDWLLPLCPGRQRAWDCATGSGQTAVRLGESFSRVDATDISSSQLSAAEPHTQVYYRECPAEVTPFDDDCFDLICVSQALHWFHLPSFWPEMQRVLKPGGIFAAWGYHHCVVSPEVDRACSVLWSIIEPFWSSRCQLLWDDFRGSGCPLPLLKAPSFTISSDWALDHFLGFLNTTSASKLCKQALGESILDDACQRITRAWGPRNQVRRVDLPLHLMVARKDDAGGYAG | failed
MELGTPLLLTIAAAGIALLLVLIIRFKIQAFVALLAVSILVAVAAQIPLKDIFTVVTTGVGSTMGKVALLIALGAILGRMIEVSGGVQSLATHFTEKLGAKRVAIALTAVGFLVAIPVFFEVGVIVLVPIVYAFAKIANVHPIKFGLPMAGIMLSIHVAVPPHPGIVAGAGVFGADIGLITLISLIICIPLGFLSYWVASIMNRKDYELLPGVKQQVDEFGSDSLVHVGHDGPGARAIAPPRPGLIMFLIAAPIVQILLGTVGTLTLAKDNYWYGVAAFIGNPFFALLVAVALSFFLLAVRRNWSLKETGEIFEGALPPIASILMVVAAGGVFGEVLRASGIGAALSHTLDSLGLPVIVLGFIISLALRAAQGSATVAIVTTTGLLTSAVMEGGYTPAQIAVIVIAIGFGSLGLSHVTDAGFWTVIRYYGLTVSDGLKTWTVLTTILGLAGFALTYVAWILVGGLGH | failed
MELKDIMHILEDMKVGVFATLDEYGNPHARHAHITAANEEGIFFMTSPETHFYDQLMGDQRVAMTAISEEGYLIQVVRVEGTARPVENDYLKTVFADNPYYQHIYKDESSDTMQVFQIYAGHGFYHSLTQGHKYIFSIGQGEHSEVRAL | not failed
MELKDYYAILGVQPTDDLKTIKTAYRRLARKYHPDVSKENDAEAKFKDLAEAWEVLKDEQRRAEYDQLWQHRNDPGFGRQRQTHEQSYSQQDFDDIFSSMFGQQAHQRRRQHAARGHDLEIEVAVFLEETLAEQTRTISYNLPVYNVFGMIESETPKTLNVKIPAGVVDGQRIRLKGQGTPGENGGPNGDLWLVIHIAPHPLFDIVGHNLEIVLPLAPWEAALGAKVTVPTLKESILLTVPPGSQAGQRLRIKGKGLVSKTHTGDLFAVIKIVMPTKPDEKARELWQQLAAAEASFDPRKTWGKA | not failed
MELKHGYYHLIAILTVAIWGLTFISTKVLINHGLTPQEIFFYRFLIAYLGIWVISPKRLFTNNWQDELWLVAGGIFGGSLYFFTENTALGITQASNVSFIICTAPLLTTILSLLFYKSEKASKGLIYGSLLALMGVGLIVFNGSFVLKISPIGDLLTLLAALSWAFYSLIIKKMAGRYPTIFITRKIFFYGVLTILPAFLLHPLHPDTAVLLQPAVLFNLLFLAVLASLICYVLWNVVLKQLGTVRASNYIYLNPLVTMIASFLILDEKITLVALGGAACIVCGVYWAEKK | failed
MELKNKKLSLWEAVSMAVGVMIGASIFSIFGVGAKIAGRNLPETFILSGIYALLVAYSYTKLGAKIVSNAGPIAFIHKAIGDNIITGALSILLWMSYVISIALFAKGFAGYFLPLINAPINTFNIAITEIGIVAFFTALNFFGSKAVGRAEFFIVLVKLLILGLFIFAGLITIHPSYVIPDLAPSAVSGMIFASAIFFLSYMGFGVITNASEHIENPKKNVPRAIFISILIVMFVYVGVAISAIGNLPIDELIKASENALAVAAKPFLGNLGFLLISIGALFSISSAMNATIYGGANVAYSLAKDGELPEFFERKVWFKSTEGLYITSALGVLFALLFNMEGVASITSAVFMVIYLFVILSHYILIDEVGGRKEIVIFSFIVVLGVFLLLLYYQWITNRFVFYGIIATFIGVLIFEIIYRKVTKRTFSNNMYVKS | not failed
MELKVWVDGVQRIVCGVTEVTTCQEVVIALAQAIGRTGRYTLIEKWRDTERHLAPHENPIISLNKWGQYASDVQLILRRTGP | not failed
MELLRPEATVLSLGRRVLSFDREGRPYHYFREGKTYKRALDGSLHLRYREGERRRRRLAPEEALGVYQEVLDLAEAHLRDERRREEVLRWTPEGLLDPTPYRRAYAWPVSILPPDAYLSVVLQATTGCTWNRCAFCSFYQDRPFQKRTPEAFREHIQAVLALLGRGRLLRRGVFLADGNALALSEPLLPLLELVRAHFPGEPVMGFLDLFTGLKKAPSWWERLGGMGLRRVYIGLETGHAPLLALLRKPGHPKEVLPLVRALKAAGLSVGVILMVGAGGKAFAEAHFRESLALLAELPLGRGDVVYLSPFREDPGTPYAALGLAPLEDLEGELQRWAQAVRRLGLRASRYEIREFLY | failed
MELLSIVIFGLLIVVSPSADFVLVFKNSAMHSRKAGMLTAIGIGAGVCVHISYSIIGISQLIANNAGLFSLVKYVGAAYLIYIGIAGLLSAKLTLDYGTQLIKPVENRKYIMQGFLCNVLNPKTMIFFLSVFSQLISSHSDSLAFVISYGVYIAVLHGIWFCIVAYLVTSAKATRVLKRFGHRINQACGVGLITFGVILSTND | failed
MELMKKFTSYTCSPIFVVVACAICLLVGFSINSSIIEIFASVMGIINVWLLSREKVSNFIFGIITVVAYLYIYYNTGLYALAVLACFQVGFNIFGWYYWVKNSDQEDNVVTSGLTKKGQILWTIIILAAWAVWGYVEINILHAQNAILDSLTAVLGLVAQYWLSKKLYENWILWILSNILFIIIYILNGYYVMLILVAIQLILSISGLLEWYASFKEQGENKLTL | failed
MELNAVKSSYARWAPIYDKTFGAITNVGRHAAVDYINAHDATELLEVGVGTGLSLPNYRPGLKVTGIDFSEEMLAKARAKVESLGLGHVQSLRQMDARDLDFADASFDVVAAMHIISVVPEPERVMAEMARVCKPGGLIVITNHFARDSGMLARVERFAAPFANLLGWHPDFEISSVLKQPDLTVIERKSLPPMGMMTFLVLQKCELEHHHHHH | not failed
